Experimental data taken from publication PMC10743661, “The Link of mRNA and rRNA Transcription by PUF60/FIR through TFIIH/P62 as a Novel Therapeutic Target for Cancer” (International Journal of Molecular Sciences, 2023).

Key:
[1] = molecular target: T1, FUBP1-interacting repressor (FIR) (human, UniProt Q9UHX1-2 1-542); assay: ITC; second step of two-step fit, 30°C, pH 7.2
T1 chain: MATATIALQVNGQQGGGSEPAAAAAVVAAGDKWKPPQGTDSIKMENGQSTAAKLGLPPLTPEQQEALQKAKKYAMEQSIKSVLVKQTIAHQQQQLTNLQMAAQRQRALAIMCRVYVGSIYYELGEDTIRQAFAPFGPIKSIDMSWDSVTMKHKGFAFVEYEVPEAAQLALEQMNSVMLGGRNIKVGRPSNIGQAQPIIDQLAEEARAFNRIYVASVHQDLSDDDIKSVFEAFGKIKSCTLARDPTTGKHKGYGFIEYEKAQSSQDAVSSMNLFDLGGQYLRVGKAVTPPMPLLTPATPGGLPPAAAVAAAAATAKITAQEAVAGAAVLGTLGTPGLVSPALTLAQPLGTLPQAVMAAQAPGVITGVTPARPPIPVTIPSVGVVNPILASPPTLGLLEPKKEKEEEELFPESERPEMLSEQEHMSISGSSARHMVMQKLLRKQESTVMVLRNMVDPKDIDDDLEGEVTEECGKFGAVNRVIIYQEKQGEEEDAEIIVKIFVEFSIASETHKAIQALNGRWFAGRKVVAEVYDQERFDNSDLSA

[2] = molecular target: T1, FUBP1-interacting repressor (FIR); assay: ITC; first step of two-step fit, 30°C, pH 7.2
[3] = molecular target: T2, FUBP1-interacting repressor (FIR) (human, UniProt Q9UHX1-2 1-542); assay: ITC; MicroCal VP-ITC, 30 °C, 50 mM phosphate buffer pH 7.2; cell: 4 μM wild FIR or 14.5 μM FIR∆exon2; syringe: 44 or 145 μM TFIIH p62 PH domain; 25 injections of 10 μL; details: both partners purified
T2 construct: also called FIR wild; wild FIR
T2 sequence (looked up): T1 chain

B1: TFIIH p62 PH domain (domain or fragment, UniProt P32780 1-108, looked up)
chain: MATSSEEVLLIVKKVRQKKQDGALYLMAERIAWAPEGKDRFTISHMYADIKCQKISPEGKAKIQLQLVLHAGDTTNFHFSNESTAVKERDAVKDLLQQLLPKFKRKAN
notes: pleckstrin homology (PH) domain of the P62 subunit of transcription factor IIH; also called P62 of TFIIH; P62 subunit of TFIIH
Ka [1]: 2.3e+06 M⁻¹
Ka [2]: 1.9e+07 M⁻¹
Ka [3]: 2.34e+07 M⁻¹
